# Measurements published in paper PMC4693281.
# B1: zona pellucida glycoprotein ZP3: ZP3(32–178)N124D (protein)
# parent chain: MGPCSRLFVCFLLWGSTELCSPQPFWDDETERFRPSKPPAVMVECQEAQLVVTVDKDLFGTGKLIRPADLTLGPDNCEPLASADTDGVVRFAVGLHECGNILQVTDNALVYSTFLLHNPRPAGNLSILRTNRAEVPIECHYPRQGNVSSWAIQPTWVPFRTTVFSEEKLVFSLRLMEENWSAEKMTPTFQLGDRAHLQAQVHTGSHVPLRLFVDHCVASLTPDWSTSPYHTIVDFHGCLVDGLTDASSAFKAPRPRPEILQFTVDVFRFANDSRNMIYITCHLKVTPVDRVPDQLNKACSFSKSSNRWSPVEGPTDICRCCSKGRCGISGRSMRLSHREGRPVPRSRRHVTEEADVTVGPLIFLRKMNDRGVEGPTSSPPLVMLGLGLATVMTLTLAAIVLGLTGRLRAASHPVCPVSASQ
# B2: zona pellucida glycoprotein ZP3: ZP3(32–178)N146D (protein)
# parent chain: B1 parent chain
# B3: zona pellucida glycoprotein ZP3: ZP3(32–178)N124,146D (protein)
# parent chain: B1 parent chain
# Experiment: competitive inhibition, sperm binding to ZP-coated wells
# Settings: glycan lost; control: ZP3(32–178)/ZP4
row,Protein,other: inhibition of sperm-ZP binding
1,B1,no change
2,B2,decreases
3,B3,decreases
